# Where a chain is given by its changes, count along the chain named.
# B1: mAb 167 (antibody, V domains shown)
# VH: EVHLVESGGGLVQPGRSLRLSCAASGFTFDDYAMHWVRQAPGKGLEWVSGISWNSGTIGYADSVKGRFTISRDNAKNSLYLEMNSLRAEDTALYYCAKDSSGYGHYYHYYIDVWGTGTTVTVSS
# VL: EIVMTQSPATLSVSPGGRATLSCRASQSVGSNLAWYQQKPGQAPRLLIYDASTRATGIPARFRGSGSGTEFTLTISGLQSEDFAVYYCQLYYNWPHFGQGTRLEIK
# B2: mAb 68 (antibody, V domains shown)
# VH: EVQLVDSGGGLVQPGGSLRLSCSGSGFTFSSYWMSWVRQAPGKGLEWVANIKQDGSQKYYVDSVKGRFTISRDNVKNSLYLQMNSLRVEDTAVYYCARDESSSWYWYFDLWGRGTLVTVSS
# VL: DIQMTQSPSTLSASVGDRVTLTCRASQNIVKWLAWYQQKPGKAPKLLIYKASSLESGVPSWFSGSGSGTEFTLTINSLQPDDFATYYCQQYYTYSRTFGQGTKVEIK
# B3: mAb 77 (antibody, V domains shown)
# VH: EVQLVESGGGLVQPGGSLRLSCAASGFTFSNYWMSWVRQAPGKGLEWVANIKQDGSEKYYVDSVRGRFTISRDNAKKSLYLQMNSLRAEDTAVYYCARDNSNYAYWYFDIWGRGTLVTVSS
# VL: B2 VL with A13V, L21I, N28S, V30R, Y49F, W61R, N76S, Y92D
# B4: mAb 140 (antibody, V domains shown)
# VH: QVQLVESGGGVVQPGRSLRLSCAASGFTFSTYGMHWVRQAPGKGLEWVAVIWYDGSHKYYADSVKGRFTISRDNSKNTLYLQMNSLRAEDTAVYYCARTGITGTTAYFYFDYWGQGTLVTVSS
# VL: not shown
# B5: mAb 144 (antibody, V domains shown)
# VH: B4 VH with G10Y, T31N, Y32F
# VL: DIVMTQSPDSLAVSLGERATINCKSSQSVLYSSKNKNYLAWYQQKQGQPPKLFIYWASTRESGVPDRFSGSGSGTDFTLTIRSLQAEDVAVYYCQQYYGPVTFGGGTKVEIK
# B6: mAb 146 (antibody, V domains shown)
# VH: B4 VH with S30I, T78M, A88V, Y112N
# VL: not shown
# B7: mAb 43 (antibody, V domains shown)
# VH: QAQLVQSGSELKKPGASVKVSCKASGYTFTKHSMNWVRQAPGQGLEWMGWINTNTGNPMYAQGFTGRFVFSLDTSVTTAYLQISSLKAEDTAVYYCAREGDYDFWSGFFNFDYWGQGTLVTVSS
# VL: DIQMTQSPSSLSASVGDRVTITCRASQGIRNDLGWYQQKPGKAPKRLIYAASSLQSGVPSRFSGSGSGAEFTLTISSLQPEDFATYYCLQHNSYPRTFGQGTKVEIK
# B8: mAb 161 (antibody, V domains shown)
# VH: EVQLVESGGGLVQPGRSLRLSCAASGITFADYTMHWVRQAPGKGLEWVSGISWNSGSIDYADSVKGRFTISRDNAKKTLYLQMNRLRAEDTALYYCAKDSSGYGHYYFYYLDVWGKGTTVTVSS
# VL: EIVMTQSPATLSVSPGERATLSCRASQSVSNNLAWYQQKPGQAPRLLIYSTSTRATGIPARFSGSRSGTEFTLTISSLQSEDSAVYYCQQYNNWPHFGQGTRLEIK
# B9: mAb 142 (antibody, V domains shown)
# VH: B4 VH with T31S, H57N, Y112S
# VL: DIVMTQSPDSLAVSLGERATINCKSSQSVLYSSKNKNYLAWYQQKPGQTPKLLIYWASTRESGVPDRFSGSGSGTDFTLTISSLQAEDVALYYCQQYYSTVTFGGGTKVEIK
# B10: mAb 146 (antibody, V domains shown)
# VH: B4 VH with S30I, T78M, A88V, Y112N
# VL: not shown
# B11: mAb 49 (antibody, V domains shown)
# VH: EVQLVESGGGLVPPGGSLRLSCVASGFTLRSYTMNWVRQAPGQGLEWISYISSTSRTIYYSDSVKGRFTISRDNAKNSLYLQVNSLRDEDTALYYCAREDYYDSSGFDCWGQGTLVTVSS
# VL: AIRMTQSPSSFSASTGDRVTITCRASQGIFNYLAWYQQKPGKAPKLLIYSTSTLQSGVPSRFSGSGSGTDFTLTIRGLQSEDLATYYCQQYYSFPRTFGQGTKVDIK
# B12: mAb 141 (antibody, V domains shown)
# VH: QVQLVQSGAEVKKPGASVKVSCKASGYTFTSYYIHWVRQAPGQGLDWMGIINPSGGITGYAQKLQGRVTMTRDTSTTTVYMELSSLRSDDTAVYYCARGVRGNYYYYYMDVWGKGTTVTVSS
# VL: EIVLTQSPDFQSVTPKEKVTITCRASQSIGSKLHWYQQKPDQSPKLLIKYASQSFSGVPSRFSGSGSGTDFNLTINSLEAEDAATFYCHQSSGLPYTFGQGTKLEIK
# B13: mAb 145 (antibody, V domains shown)
# VH: B12 VH with S31N, L64F
# VL: B12 VL with Y50F, A80P
# B14: mAb 131 (antibody, V domains shown)
# VH: EVQLVESGGGLVKTGGSLRISCVASGFSFKKAWMNWVRQAPGKGLEWVGRIKRNTDGGTIDYAAPVKGRFSLSRDDSKNTLFLQMNSLKTEDTAVYFCTTLDSSSYYVGYYYMDVWGKGTTVTVSS
# VL: DIHMTQSPSSVSASVGDRVTITCRASQDINNWLAWYQQKPGKAPKLLIYTASSLQSGVPSRFSGSGSGTDFTLTISSLQPEDFATYFCQQAHSLPITFGQGTRLGIK
# B15: mAb 156 (antibody, V domains shown)
# VH: B14 VH with I20L, I60A, S71T, N79K, F97Y
# VL: B14 VL with H3Q, T20I, P40A, S76G, F87Y, G105E
# B16: mAb 133 (antibody, V domains shown)
# VH: B14 VH with I20L, N35S, I60A, S71T, N79K, T93S, F97Y, T99V
# VL: B14 VL with H3Q, T20S, S76G, F87Y, G105E
# B17: mAb 155 (antibody, V domains shown)
# VH: B14 VH with I20L, I60A, S71T, N79K, F97Y
# VL: B14 VL with H3Q, T20I, S76G, F87Y, T97S, G105D
# B18: mAb 132 (antibody, V domains shown)
# VH: DVQLVESGGGTVKTGGSLRLSCVASGFSFKKAWMNWVRQAPGKGLEWVGRIKKNSDGGTADYAAPVKGRFTISRDDSKKTLYLQMNSLQTEDTAVYYCTTLDSSSWYVGYYYMDVWGKGTTVTVSS
# VL: B14 VL with H3Q, T20I, K42I, G68V, T69S, S76G, F87Y, G105E
# B19: mAb 137 (antibody, V domains shown)
# VH: B4 VH with N77K, A92G, V93I, T102S, T104N, T105M, A106S, Y112H, T117I
# VL: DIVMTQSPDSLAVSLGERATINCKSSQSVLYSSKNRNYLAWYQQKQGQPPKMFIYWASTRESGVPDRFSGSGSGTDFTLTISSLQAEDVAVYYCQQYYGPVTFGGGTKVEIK
# B20: mAb 153 (antibody, V domains shown)
# VH: B4 VH with A61S, A88V, V93I, Y112S
# VL: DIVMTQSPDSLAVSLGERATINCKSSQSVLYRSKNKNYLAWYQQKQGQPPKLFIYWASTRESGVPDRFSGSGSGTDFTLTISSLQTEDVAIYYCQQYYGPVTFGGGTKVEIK
# B21: mAb 140 (antibody, V domains shown)
# VH: B4 VH
# VL: not shown
# B22: mAb 42 (antibody, V domains shown)
# VH: B7 VH with M59T
# VL: B7 VL
# B23: mAb 50 (antibody, V domains shown)
# VH: B7 VH with K31R, S33A, M59T
# VL: B7 VL with Y36F, K45T
# Target: T1, human CD3 expressed on cells (human, UniProt P07766 23-207; P04234 22-171; P09693 23-182)
# T1 construct: whole, on cells; CD3 complex on Jurkat cells and on human primary T cells
# T1 sequence (P07766 23-207, chain 1 of 3): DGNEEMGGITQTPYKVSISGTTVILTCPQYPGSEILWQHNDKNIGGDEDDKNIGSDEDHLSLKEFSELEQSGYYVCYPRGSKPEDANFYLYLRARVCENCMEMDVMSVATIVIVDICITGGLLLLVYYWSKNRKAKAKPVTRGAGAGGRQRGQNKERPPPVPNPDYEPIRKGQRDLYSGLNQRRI
# T1 sequence (P04234 22-171, chain 2 of 3): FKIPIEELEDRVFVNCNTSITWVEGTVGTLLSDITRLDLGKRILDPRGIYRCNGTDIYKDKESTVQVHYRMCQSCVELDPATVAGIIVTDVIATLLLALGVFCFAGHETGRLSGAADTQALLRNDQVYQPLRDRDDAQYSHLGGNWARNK
# T1 sequence (P09693 23-182, chain 3 of 3): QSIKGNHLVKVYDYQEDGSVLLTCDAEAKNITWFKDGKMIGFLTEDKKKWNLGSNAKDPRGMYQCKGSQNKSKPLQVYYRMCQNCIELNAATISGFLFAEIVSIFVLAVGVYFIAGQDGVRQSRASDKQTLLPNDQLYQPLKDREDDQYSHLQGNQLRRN
# Experiment: flow cytometry, 25 nM
# Description: Purified antibodies were confirmed to bind CD3 expressed on cells using the CytoFLEX S or LX flow cytometers (Beckman Coulter). Antibodies were diluted to 25 nM in FACS buffer (PBS+2% FBS) and were incubated with CD3-expressing cells for 30 minutes at 4° C. […] The median fluorescence intensity of the binding signal for each antibody was normalized to the isotype control to obtain a fold over isotype value. An antibody with a fold over isotype (FOI) of ≥10 was considered to be positive for binding.
Human primary T Cell Binding (FOI),Jurkat Cell Binding (FOI),Binder
167,124,B1
117,113,B2
125,106,B3
148,135,B4
157,139,B5
340,194,B6
83.3,108,B7
170,106,B8

# Target: human CD3 (human, UniProt P07766 23-207; P04234 22-171; P09693 23-182)
# Sequence (P07766 23-207, chain 1 of 3): as the sequence (P07766 23-207, chain 1 of 3) above
# Sequence (P04234 22-171, chain 2 of 3): as the sequence (P04234 22-171, chain 2 of 3) above
# Sequence (P09693 23-182, chain 3 of 3): as the sequence (P09693 23-182, chain 3 of 3) above
# Experiment: cell-based or functional assay
"CD4 EC50 (nM); CD69/CD25 on human T cells, plate-coated antibody [nM]","CD8 EC50 (nM); CD69/CD25 on human T cells, plate-coated antibody [nM]",Binder
26.9,32,B9
12.5,12.6,B10
6.76,6.65,B11
22.1,22.8,B12
13.3,14.9,B13
13.3,13.3,B14
6.25,6.25,B15
13.9,13.6,B16
6.25,6.29,B17
6.39,6.34,B18
13.1,14.1,B19
8.76,8.56,B20
13.7,17.8,B21
25.4,25.5,B22
26.3,24.5,B23
